From EP2182008A2
One block for each substance: values may come before it.

Tests used:
[1] = target: T1, VCAM-1/IgG1 fusion protein (seven extracellular immunoglobulin-like domains) (UniProt P19320); test: ELISA, Iαd/IgG4 on immobilized CAM/IgG, detection with anti-IgG4 HP6023
T1 sequence (looked up): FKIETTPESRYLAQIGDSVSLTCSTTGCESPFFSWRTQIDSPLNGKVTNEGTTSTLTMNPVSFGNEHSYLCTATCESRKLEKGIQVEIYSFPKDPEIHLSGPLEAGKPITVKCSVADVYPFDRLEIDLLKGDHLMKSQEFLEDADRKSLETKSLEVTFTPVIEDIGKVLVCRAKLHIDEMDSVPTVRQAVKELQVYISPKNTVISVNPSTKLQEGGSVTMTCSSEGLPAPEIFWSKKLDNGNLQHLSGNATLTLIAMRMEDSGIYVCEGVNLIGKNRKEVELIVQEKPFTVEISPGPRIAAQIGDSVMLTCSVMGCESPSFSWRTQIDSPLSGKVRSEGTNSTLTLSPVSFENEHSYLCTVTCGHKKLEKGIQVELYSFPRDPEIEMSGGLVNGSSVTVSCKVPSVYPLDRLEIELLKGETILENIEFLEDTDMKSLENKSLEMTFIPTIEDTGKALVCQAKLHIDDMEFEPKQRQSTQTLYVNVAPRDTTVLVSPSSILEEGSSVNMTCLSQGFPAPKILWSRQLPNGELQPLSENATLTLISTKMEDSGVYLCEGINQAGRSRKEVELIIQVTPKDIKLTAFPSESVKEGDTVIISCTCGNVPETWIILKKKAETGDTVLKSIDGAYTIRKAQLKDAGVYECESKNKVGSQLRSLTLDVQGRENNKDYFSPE

[2] = target: mutant two domain VCAM-1 fused to human immunoglobulin Fc (substitution at residue 40) (human) (UniProt P19320); test: adhesion of transfected CHO cells to immobilized CAM, crystal violet, A570
[3] = target: recombinant VCAM-1 (commercial preparation, R & D Systems) (UniProt P19320); test: cell-based or functional assay
[4] = target: LFA-1 leucine zipper fusion protein (UniProt P20701); test: ELISA, plate format; sentence unclear
[5] = target: immobilized CD11b/CD18 (human) (UniProt P05107); test: ELISA, plate format; sentence unclear
[6] = target: soluble ICAM-R/IgG1 fusion protein (UniProt P32942); test: ELISA, soluble integrin in supernatant on immobilized ICAM/Ig
soluble ICAM-R/IgG1 fusion protein, sequence (P32942 30-485 limits assumed): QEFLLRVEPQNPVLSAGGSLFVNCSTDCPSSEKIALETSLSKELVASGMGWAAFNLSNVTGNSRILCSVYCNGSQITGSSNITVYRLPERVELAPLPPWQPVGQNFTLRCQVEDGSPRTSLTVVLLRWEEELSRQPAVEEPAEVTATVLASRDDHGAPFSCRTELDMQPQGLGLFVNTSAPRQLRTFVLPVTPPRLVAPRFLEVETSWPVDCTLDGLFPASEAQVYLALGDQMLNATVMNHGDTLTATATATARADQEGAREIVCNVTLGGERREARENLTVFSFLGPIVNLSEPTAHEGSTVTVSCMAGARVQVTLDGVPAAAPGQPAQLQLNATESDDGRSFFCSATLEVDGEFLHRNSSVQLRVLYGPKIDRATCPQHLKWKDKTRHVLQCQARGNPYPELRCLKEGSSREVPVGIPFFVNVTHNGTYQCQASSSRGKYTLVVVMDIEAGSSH

human αd I domain/IgG4 fusion protein, sequence (P01861 other isoform, or with tags, fused parts or gaps): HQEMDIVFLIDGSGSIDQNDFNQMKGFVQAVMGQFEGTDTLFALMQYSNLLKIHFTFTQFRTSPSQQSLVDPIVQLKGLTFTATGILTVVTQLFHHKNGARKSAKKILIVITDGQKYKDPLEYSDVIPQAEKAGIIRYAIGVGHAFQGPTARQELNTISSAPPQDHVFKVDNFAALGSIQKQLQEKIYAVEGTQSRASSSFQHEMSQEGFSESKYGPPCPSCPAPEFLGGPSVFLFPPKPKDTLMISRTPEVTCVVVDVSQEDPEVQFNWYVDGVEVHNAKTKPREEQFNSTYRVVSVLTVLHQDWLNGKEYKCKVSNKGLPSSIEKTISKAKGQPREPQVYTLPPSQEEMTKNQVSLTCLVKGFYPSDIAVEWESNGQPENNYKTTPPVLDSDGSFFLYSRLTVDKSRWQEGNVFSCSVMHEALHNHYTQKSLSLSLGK

fold higher than background [1]: 7 to 10 fold
Substance: human αd I domain/IgG4 fusion protein (from UniProt P01861 99-327) (Fc fusion)

binding as percent of that with wild-type VCAM-1 [2]: 50%
Substance: human αd/CD18 expressed on transfected cells (from UniProt P05107 23-769) (receptor)

binding rate of IL-5 cultured eosinophils to immobilized VCAM-1 [3]: 28.8%
binding rate of IL-5 cultured eosinophils to immobilized VCAM-1 in the presence of a monoclonal antibody against α4 [3]: 18.1%
binding rate of IL-5 cultured eosinophils to immobilized VCAM-1 in the presence of an anti-CD18 monoclonal antibody [3]: 17.1%
Substance: native human αd/CD18 on human cells (from UniProt Q13349 18-1161; P05107 23-769) (receptor)

fold greater than background binding [4]: 5 fold
fold greater than background binding [5]: 15 fold
fold over control well containing no antibody [6]: 10 fold
Substance: soluble human αd/CD18 leucine zipper heterodimer (from UniProt P05107 23-700) (receptor)
